Reference: paper PMC8939767 (Science Translational Medicine, 2022)
Where no end group is shown, it is not given here. The star is where a group is joined. Biotin = O=C1N[C@H]2[C@H](CS[C@H]2CCCCC(=O)*)N1

Assays:
[1] = molecular target: T1, HCoV-HKU1 stem peptide variant, 20-mer with 5 additional residues at the N-terminus (HCoV-HKU1 isolate N1 (AAT98580.1), UniProt Q5MQD0, biotin on the N-terminus); experiment: BLI; settings: both partners purified
T1 construct: also called 20-mer (brick red); source: synthetic peptide
T1 chain: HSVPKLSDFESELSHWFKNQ

[2] = molecular target: T2, HCoV-HKU1 stem peptide variant, 20-mer with 5 additional residues at the C-terminus (HCoV-HKU1 isolate N1 (AAT98580.1), UniProt Q5MQD0, biotin on the N-terminus); experiment: BLI; settings: both partners purified
T2 construct: also called 20-mer (orange); source: synthetic peptide
T2 chain: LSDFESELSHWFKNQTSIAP

[3] = molecular target: T3, HCoV-HKU1 25-residue S2 stem peptide (residues 1226-1250) (HCoV-HKU1 isolate N1 (AAT98580.1), UniProt Q5MQD0, biotin on the N-terminus); experiment: BLI; settings: both partners purified
T3 construct: also called 25-mer (red); 25-mer S2 peptide from HCoV-HKU1; source: synthetic peptide
T3 chain: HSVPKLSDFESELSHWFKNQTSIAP

[4] = molecular target: T4, HCoV-HKU1 soluble spike ectodomain protein (HCoV-HKU1, isolate N1 by the GenBank …, UniProt Q5MQD0); experiment: BLI; settings: both partners purified
T4 construct: also called HCoV-HKU1 soluble spike protein; source: FreeStyle293-F, transfected, purified (Ni-NTA, SEC)

[5] = molecular target: T5, HCoV-HKU1 spike protein, full length, expressed on 293T cells (HCoV-HKU1, isolate N1 by the GenBank …, UniProt Q5MQD0); experiment: flow cytometry on cells; settings: one partner purified
T5 construct: source: HEK293T, transfected, on the cell surface
T5 sequence (Q5MQD0 13-1356): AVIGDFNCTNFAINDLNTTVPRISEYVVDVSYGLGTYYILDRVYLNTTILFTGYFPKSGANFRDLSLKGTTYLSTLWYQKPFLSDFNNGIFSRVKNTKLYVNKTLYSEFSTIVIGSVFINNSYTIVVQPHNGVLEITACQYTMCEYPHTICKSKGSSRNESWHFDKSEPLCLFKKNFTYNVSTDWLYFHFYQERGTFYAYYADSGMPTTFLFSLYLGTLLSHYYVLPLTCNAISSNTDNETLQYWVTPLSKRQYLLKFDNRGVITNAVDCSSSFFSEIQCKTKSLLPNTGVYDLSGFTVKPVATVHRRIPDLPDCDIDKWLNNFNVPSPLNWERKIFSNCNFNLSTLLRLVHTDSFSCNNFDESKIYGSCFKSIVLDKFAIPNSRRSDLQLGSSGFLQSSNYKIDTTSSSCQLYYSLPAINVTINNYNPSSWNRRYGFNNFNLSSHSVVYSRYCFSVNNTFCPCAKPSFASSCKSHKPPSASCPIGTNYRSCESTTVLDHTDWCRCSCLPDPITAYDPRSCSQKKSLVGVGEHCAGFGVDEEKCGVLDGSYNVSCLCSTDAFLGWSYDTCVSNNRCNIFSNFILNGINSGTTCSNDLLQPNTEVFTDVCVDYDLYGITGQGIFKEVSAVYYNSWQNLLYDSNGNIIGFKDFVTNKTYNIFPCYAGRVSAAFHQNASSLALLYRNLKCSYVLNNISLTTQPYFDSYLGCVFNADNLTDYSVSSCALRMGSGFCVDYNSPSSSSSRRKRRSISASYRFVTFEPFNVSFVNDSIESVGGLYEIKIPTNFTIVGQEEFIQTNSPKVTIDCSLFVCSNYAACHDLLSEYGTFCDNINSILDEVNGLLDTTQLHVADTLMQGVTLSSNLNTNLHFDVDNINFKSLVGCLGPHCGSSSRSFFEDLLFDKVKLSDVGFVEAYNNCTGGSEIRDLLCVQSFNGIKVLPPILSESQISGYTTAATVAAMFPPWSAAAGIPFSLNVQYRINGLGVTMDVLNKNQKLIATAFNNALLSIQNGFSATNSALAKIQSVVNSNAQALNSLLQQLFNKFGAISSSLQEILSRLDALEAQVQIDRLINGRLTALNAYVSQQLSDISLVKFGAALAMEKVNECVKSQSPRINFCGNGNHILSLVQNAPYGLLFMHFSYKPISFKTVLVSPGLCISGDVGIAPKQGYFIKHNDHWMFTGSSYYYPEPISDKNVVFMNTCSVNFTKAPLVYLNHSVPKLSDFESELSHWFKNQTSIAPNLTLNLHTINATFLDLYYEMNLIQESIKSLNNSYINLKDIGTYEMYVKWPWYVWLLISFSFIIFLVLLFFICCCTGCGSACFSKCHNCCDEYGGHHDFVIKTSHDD

[6] = molecular target: T6, HCoV-HKU1 S2 95th 15-mer stem peptide (residues 1231-1245), biotinylated (HCoV-HKU1 isolate N1 (AAT98580.1), UniProt Q5MQD0); experiment: ELISA; […], mAb in 1% BSA/PBST, […]; settings: both partners purified
T6 construct: also called 95th 15-mer peptide; HCoV-HKU1 95th 15-mer stem peptide; source: synthetic peptide (A&A Labs, Synthetic Biomolecules)
T6 chain: Biotin-LSDFESELSHWFKNQ

[7] = molecular target: T7, SARS-CoV-2 S2 stem-helix 25-mer peptide, N-terminal biotinylated (wild type) (SARS-CoV-2, UniProt P0DTC2, biotin on the N-terminus); experiment: BLI; […], Octet buffer (PBS plus 0.1% Tween-20), association 120 s, […]; settings: both partners purified
T7 construct: also called SARS-CoV-2 stem-helix peptide; SARS-CoV-2 stem peptide (25mer); source: synthetic peptide
T7 chain: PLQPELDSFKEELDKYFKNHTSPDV

[8] = molecular target: T8, SARS-CoV-2 25-mer S2 stem peptide (as used for the crystal and for competition of neutralization) (SARS-CoV-2, UniProt P0DTC2); experiment: crystal structure; settings: both partners purified
T8 construct: also called SARS-CoV-2 S2 peptide; SARS-CoV-2 stem peptide; source: synthetic peptide
T8 chain: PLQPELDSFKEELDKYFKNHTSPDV

Measured: binding result

B1: CC40.8 broadly neutralizing antibody (IgG) (antibody, V domains shown)
VH: EVQLLESGGGLVQPGGSLRLSCAASGFTFSSYVMTWARQAPGKGLEWVSAISGTGYTYYADSVKGRFTVSRDNSKNTLFLQMSSLRAEDTAVYYCAITMAPVVWGQGTTVTVSS
VL: SYELTQPPSVSVSPGQTARITCSGDALPKRYAYWYQQKSGQAPILVIYEDKKRPSGIPERLSGSKSGTVATLTISGAQVEDEADYYCYSTDSSGNHAVFGGGTQLTVL
notes: also called CC40.8 bnAb; CC40.8 mAb
not listed: [8]
binds: all other assays above

B2: CC40.8 Fab (Fab, V domains shown)
VH: B1 VH
VL: B1 VL
notes: also called CC40.8 antibody Fab fragment
binds: [8]
